Data as given in paper PMC5566378 (2017).

B1: human IL-17RC extracellular domain (receptor)
chain: LERLVGPQDATHCSPGLSCRLWDSDILCLPGDIVPAPGPVLAPTHLQTELVLRCQKETDCDLCLRVAVHLAVHGHWEEPEDEEKFGGAADSGVEEPRNASLQAQVVLSFQAYPTARCVLLEVQVPAALVQFGQSVGSVVYDCFEAALGSEVRIWSYTQPRYEKELNHTQQLPDCRGLEVWNSIPSCWALPWLNVSADGDNVHLVLNVSEEQHFGLSLYWNQVQGPPKPRWHKNLTGPQIITLNHTDLVPCLCIQVWPLEPDSVRTNICPFREDPRAHQNLWQAARLQLLTLQSWLLDAPCSLPAEAALCWRAPGGDPCQPLVPPLSWENVTVDKVLEFPLLKGHPNLCVQVNSSEKLQLQECLWADSLGPLKDDVLLLETRGPQDNRSLCALEPSGCTSLPSKASTRAARLGEYLLQDLQSGQCLQLWDDDLGALWACPMDKYIHKR

How the values were obtained:
[1] = target: human IL-17A/F heterodimer, Arg77 to alanine mutant (F-chain) (human, UniProt Q16552 24-155; Q96PD4 31-163, R77A); experiment: SPR
[2] = target: B1; experiment: SPR

Kd [1] [nM]	Kd [2] [nM]	Binder
5.4	–	B1
–	3.5	human IL-17F homodimer (ligand) RKIPKVGHTFFQKPESCPPVPGGSMKLDIGIINENQRVSMSRNIESRSTSPWNYTVTWDPNRYPSEVVQAQCRNLGCINAQGKEDISMNSVPIQQETLVVRRKHQGCSVSFQLEKVLVTVGCTCVTPVIHHVQ
